Test: yeast display, Sf9 membrane polyspecificity reagent, FACS + sequencing; frameworks hold sequencing errors
Method in brief: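 Sorting gates, low and high (top ~1%), were placed on anti-HA fluorescence to track expression and on streptavidin fluorescence to track reagent binding. A clone's polyreactivity label is taken from the gate it came out of. The reagent was 10% biotinylated, detergent-solubilized Sf9 membrane, applied for 1 hour at 4 °C to galactose-induced yeast display cells.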

Sequence	polyreactivity (PSR sort gate)
QVQLVESGGGLVQAGGSLRLSCAASGRIFSRYAMGWYRQAPGKERELVAAISRNGGSTYYADSVKGRFTISRDNAKNTVYLQMNSLKPEDTAVYYCNARGNQAVNGYEYWGQGTQVTVSS	high polyreactivity
QVQLVESGGGLVQAGGSLRLSCAASGSTFIPYAMGWYRQAPGKERELVAAISFNDGITYYADSVKGRFKISRDNAKNTVYLQMNSLKPEDTAVYYCAAEDWSDYPYGMDYWGQGTQVTVSS	high polyreactivity
QVQLVESGGGLVQAGGSLRLSCAASGRTSVLYAMGWYRQAPGKEREFVAAITWNSGSTYYADSVKGRFTISRDNAKNTVYFQMNSLNPEDTAGYYCAADGLSYYVIRFDYWGQGTQVTVSS	low polyreactivity
QVQLVESGGGLVEAGGSLRLSCAASGSTSRHNTMGWYRQAPGKERELVAAISGGGTTYYADSVKGRFTISRDNAKNTVYLQMNRLNPEDTAVDDCAAAFWGDYASSYRAGLDYWGQGTQETVSS	low polyreactivity
QVQLQESGGGPVLAGGSLRLSCAASGTIFVPLDMGWYRQAPGKEREFVATIGSGSSTYYADSVKGSFTISRDNVKNTVYLQMNSLKPEDTAVYYCAVSAAEQSRHYYWDQGTQVTVSS	low polyreactivity
QVQLVESGGGLVQAGGSLRLSCAASGRIFWYYAMGWYRQAPGKERELVATISSRSGSTYYADSVKGRFTISRDNAKNTVNLQMNSLKPEDTAVYYCAAGTPYYLGYRHNYWGQGTQVTVSS	high polyreactivity
QVQLVESGGGLVQAGGSLRLSCAASGSIFYGYAMGWYRQAPGKERELVAAIRYSDGSTYYADSVKGRFTISRDNAKNTVYLQMNSLKPEDTAVYYCAKKRRNYIGYYYWGQGTQVTVSS	high polyreactivity
QVQRVESGGGLVQAGGSLRLSCAASGRTVGYYAMGWYRQAPGKERELLAAITRTGGSTHYADSVKGRFTISRANAKNTVYIQMNSLKPEDTAVYYCARDYRYTIPYDYWGQGTQVTVSS	low polyreactivity
QVQLVESGGGLVQAGGSLRLSCAASGSTYYYYMGWYRQAPGKERELVASISYTGSRTYYADSVKGRFTISRDNAKNTVYLQMNSLKPEDTAVYYCAAARSRARSYYYWGQGTQVTVSS	high polyreactivity
QVQLVESGGGLVQAGGSLRLTCAASGRIFSNDKGWYRQAPGKERELVAAITWSGGTTHYADSVKGRFTISRDNAKNTVYLQMNSLKPEDTAVYYCARAGGHAYSYWGQGTQVTVSS	low polyreactivity
QVQLVESGGGLVQAGGSLRLSCAASGSNFVGYAMGWYRQAPGKERELVAGITASGTNTYYADSVKGRFTISRDNAKNTVYLQMNSLKPEDTAVYYCAAESNRRFEGEYWGQGTQVTVSS	high polyreactivity
QDQLVESGGGLVQAGGSLRLSCAASGRIFTGNAMGWYRQAPGKERELVAAITKSGGSTYYADSVKGRFTISRDNAKNTVYLQMNSLKPEDTAVYYCAATRYLHYVYKYGYWGQGTQVTVSS	high polyreactivity
KVQLVESGVGLVQAGGSLRLSCAPSGSIFKYYAMGWYRQAPGKERELVAAITDRGSSTYYADSVKGRFTISRDNAKTTVYLQMNSLKPEDTAVYYCAAETYVCIYWPYVKYYYWGQGTQVNVSS	high polyreactivity
QVQLVESGGGLVQAGGSLRLSCAASGSTFSRNAMGWYRQAPGKERELVATISWRGGSTYYADSVKGRFTISRDNAKNTVYLQMNSLKPEDTAVYYCATLHRPAYYYWGQGTQVTVSS	high polyreactivity
QVQLVESGGGLVQAGGSLRLSCAASGRTFATYMGWYRQAPGKERELVAGITRGGNTNYADSVKGRFTISRDNAKNTVYLQMNSLKPEDTAVYYCAKLKYRSHYSWGQGTQVTVSS	high polyreactivity
QVQLVESVRGLVQAGGSLRLSCASSGSTFYGYTLGWYRQAPGKERELVAAISWSGGSTYYADSVKGRFTISRDNAKNTVYLQMNSLKPEDTAVFYCAARWGYSRRGYRGYDYWGQGTQVTVSS	high polyreactivity
QVQLVESGGGLVQAGGSLRLSCAAAGRTFFKYAMGWYRQAPGKERELVATITSSGGITYADSVKGRFTISRDNAKNTVYLQMNRLKPEDTAVYYCNARVWVTHYSELNYWVQGTQVTVSS	low polyreactivity
QVQLVESGGGLVQAGGSLRLSCAASGFTFPGYAMGWYRQAPGKERELVAAISSSGGSTYYADSVKGRFTISRDNAKNTVYLQMNSLKPEDTAVYYCAARHGQSWQWLEYDYWGQGTQVTVSS	low polyreactivity
QVQLVESGGGLVQAGGSLRLSCAASGFTFASYAMGWYRQAPGKERELVAAITRRGGSTNYADSVKGRFTISRDNAKNTVFLQMNSLKPEDTAVYYCNALHGVWYPAYDYWGQGTQVTVSS	low polyreactivity
QVQLVESGGGLVQAGGSLRLSCAASGSTFVGYAMGWYRQAPGKVRELVADITSGGGITYYADSVKGRFTISRDNAKNTVYLQMNSLKPDDTAVYYCAPGRPRPHWWSLDYYYWGQGTQVTVSS	low polyreactivity
QVQLVESGGGLVQAGGSLRLSCAASGIIFTPNAMGWSRQAPGKERELVAAINYGGDTTYYADSVKGRFTISRDNAKNTVYFQMNSLKPADTAVYYCATDGTTPTPRDAFVRFDHWGQGTQVTVSS	low polyreactivity
QVQLVESGGGLVQAGGSLRLSCAASGRIFLSYTMGWYRQAPGKERELVAAISRGGRTYYADSVKGRFTISRDNAKNTVYLQMNSLKPEDTAVYYCAKKYGRYGSLRGRTIDDYWGQGTQVTVSS	low polyreactivity

Sequence	polyreactivity (PSR sort gate)
QVQLVESGGGLVQAGGSLRLSCAASGSIFGSYAMGWYRQAPGKERALVAAMSRSGITYYADSVKGRFTISRDNAKNTVYLQMNSLKPEDTAVYYCNADVSWWGYHYDYWGQGTQVTVLS	high polyreactivity
QVQLVESGGGLVQAGGSLRLICAASGRILDNYAMGWYRQAPGKERELVAAISASGASTYYADSVKGRFTISRDNAKNTVYLQMNSLKPEDTAVYYCNAAARYRWQYDYSLYEYGHWGQGTQVTVSS	high polyreactivity
QVQLVESGGGLVQAGGSLRLSCAASGSTFRVYAMGWYRQAPGKERELVAAITKSGGSTYYADSVKGRFTISRDNAKNTVYLQMNSLKPEDTEVYYCAADKSWTRYGFYWGQGTQLTVSS	high polyreactivity
QVQLVESGGGLVQAGGSLRLSCAASGSIFGRYGAIGWYRQAPGKERELVAAINRSGGITYYADSVKGRFTISRDNAKNTVYLQMNSLKPEDTAVYYFNADAYYYSTSPRGAFDWPYDYWGQGTQVNVSS	low polyreactivity
QVQLVESGGGLFQAGGSLRLSCAASGSTFPKYEMGWYRQAPGKERELVATISSGTRTYYADSVKGRFTISRDNAKNTVYLQMNSLKPDDTAVYYCAASYQPRKGAHYGYWGQGSQVTVSS	high polyreactivity
QVQLVESGGGLVQAGGSLSLSCAASGSTFYNYAMGWYRQAPGKERELVASITWNGGSTYYADSVKGRFTISRDNAKNTVYLQMNSLKPEDTAVYYCAADWTWTYPYDYWGQGTQVTVSS	low polyreactivity
QVQLVESGGGLVQAGGSLRLSCAASGSIFVSYAMGWYRQAPGKERELVAAITSAGTTYYADSVKGRFTISRDNAKNTVYLQMNSLKPEDTAVYYCNADTYGYYLWTGAVSAGDDYWGQGTQVTVSS	low polyreactivity
QVQLVESGGGLVQAGGSLRLSCAASGSTFRKYAMGWYRQAPGKEREFVAAISSSGGRTYYADSVKGRFTISRDNAKNTVYLQMNSLKPEDTAVYYCNAYFRYSYDYWGQGTQVTVSS	high polyreactivity
QVQLVESGGGLVQAGGSLRLSCAASGRTFWGYAMGWYRQAPGKERELVAAISSGGDTTYADSVKGRFTISRDNAKNTVYLQMNSLKPEDTAVYYCAADRWIPVYILGADGYDYWGQGTQVTVSS	low polyreactivity
QVQLVESGGGLVQAGGSLRLSCAASGITFVKNAMGWYRQAPGKERELVARIRIGGSTSYADSVKGRFTISRDNAKNTVYLQRNSLKPEDNAVYYCARYAGRLSYRYEYWGQGTQVTVSS	high polyreactivity
QVQLVESGGGLVQAGGRLRLSCAASGSIFSYYAMGWYRQAPGKERELVAAITANGGSTYYADSVKGRFTISRDNAKNTVYLQMNSLKPADTAVYYCAADYYWGYDCGQGTQVTVSS	low polyreactivity
QVQLVESGGGLVQAGGSLRLSCAASGSIFNYSAMGWYRQAPGKERELVAAITTSGGNTYYADSVQGRFTISRDNAKNTVYLQMNSLKPEDSAVYYCARTVSRYGTGNMDYWGQGTKVTVSS	low polyreactivity
QVQLGESGGGLVQAGGSLRLSCAASGSTFSCYAMGWYRQAPGKEREFVAAISWSGGSTYYADSVKGRFTISRDTAKNTVYLQMNSLKPEDTEVYYCAATRRGPYWWFGYDYWGQGTQVTVSS	high polyreactivity
QVQLVESGGGLVQAGGSLRLSCAASGIIFPGYAMGWYRQAPGKERELVAAISRSGASTYYADSVKGRFTISRDNAKNTVYLQMNSLKPEDTAVYYCAAEWYRGGEYRRYDYWGQGTQVTVSS	high polyreactivity
QVQLVESGGGLVQAGGSLRLSCAASGITFGDYAMGWYRQAPGKERELVAAISYGGGSTYYADSVKGSFTISRDNAKNTVYLQMNSLKPEDTAVYYCAADGWRTYGYYEYDYWGQGTQVTVSS	low polyreactivity
QVHLEHSAGGLVQAGGILRLSSPASGSIVVTNAMGWYRQAPGKERELVAAISNSGSSTYYADSVKGRFTISRDNSKNTVYLQMNSLKPEDTAVYYCAADEPTWDWSYPYGYWGQGTQVTVSS	high polyreactivity
QVQLVESGGGLVQAGGSLRLSCAASGRIFGNYAMGWYRPATGKESELVAAISGGGSTYYADSVKGRFTISRDNAKNTVYLQMNSVKPEDTAVYYCAARFMWSVFGRKGGYWGQGTHVTVSS	low polyreactivity
QVQLVESGGGLVQAGGSLRLSCAASGRTFRYNAMGWYRQAPGKERELVAAISSGDRTNYADSVKGRFTISRDNAKNTVYLQMNSLKPEDTAVYYCAAPTDSYYEFDYWGQGTQVTVSS	low polyreactivity
QVQLVESGGGLVQAGGSLRLSCAASGSIFNKNTMGWYRQAPGKERELVAAISGRTGITTYADSVKGRFTISRDNAKNTVYLQMNSLKPEDTAVYYCNAANRWRGSYDYWGQGTQVTVSS	high polyreactivity
QVQLVESGGGLVQAGGSLRLSCAASGRIFRPYAMGWYRQAPGKERELVAAITRGGSTKYADSVKGRFTISRDNAKNTVYLQMNSLKPEDTAVYYCAARGWSTGTSYRSAWWDYYYWGQGTQVTVSS	high polyreactivity
QVQLVESGAGLFQAGGSLRLTCAPSGSIFAFNTMGLYRQAPGKERHLVAAITWGGGSTYYADSVKGRFTISRDNAKNTVYLQMYSLKPEDTAVYYCATKAKYGRQFLMEYWGQGTQVTVSS	high polyreactivity

— the nanobody polyreactivity screen of Harvey et al. (2022)
